These results are taken from patent publication US20030125296.

The subject of data set [1] is E. coli-expressed NFκB p50.
Data set [2] relates to T1, RPRAATF substrate of glycogen synthase kinase 3β.
T1 sequence: RPRAATF

Data set [3] concerns Thioredoxin (Trx) alone, expressed in E. coli from a pET32 vector [thioredoxin: P0AA25].
For data set [4], the system named is Trx-IRDBP-1 fusion protein (His6-tagged thioredoxin fusion of the 1503 bp coding region of the cDNA SEQ ID NO: 44).
In data set [5] the test system is IRDBP-1 expressed from pCR IRDBP-1 in transfected COS 7 cells.
Chain of IRDBP-1 expressed from pCR IRDBP-1 in transfected COS 7 cells (chain, as listed by the source): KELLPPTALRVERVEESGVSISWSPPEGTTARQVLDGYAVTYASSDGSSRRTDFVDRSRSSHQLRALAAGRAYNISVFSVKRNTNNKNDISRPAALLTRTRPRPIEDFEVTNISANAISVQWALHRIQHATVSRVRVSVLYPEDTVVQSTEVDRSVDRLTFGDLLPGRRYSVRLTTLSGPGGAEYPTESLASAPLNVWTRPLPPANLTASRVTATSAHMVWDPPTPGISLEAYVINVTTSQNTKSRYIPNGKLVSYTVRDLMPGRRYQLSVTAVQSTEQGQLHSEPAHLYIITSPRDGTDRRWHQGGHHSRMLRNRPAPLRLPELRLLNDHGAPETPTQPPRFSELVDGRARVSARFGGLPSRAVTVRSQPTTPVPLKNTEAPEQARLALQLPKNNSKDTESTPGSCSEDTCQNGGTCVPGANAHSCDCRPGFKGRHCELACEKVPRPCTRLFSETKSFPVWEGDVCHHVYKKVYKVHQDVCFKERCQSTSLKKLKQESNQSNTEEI

Chain of Trx-IRDBP-1 fusion protein (His6-tagged thioredoxin fusion of the 1503 bp coding region of the cDNA SEQ ID NO: 44) (chain, as listed by the source): as above
Chain of Thioredoxin (Trx) alone, expressed in E. coli from a pET32 vector [thioredoxin: P0AA25] (P0AA25 whole entry, the tested form may be a part): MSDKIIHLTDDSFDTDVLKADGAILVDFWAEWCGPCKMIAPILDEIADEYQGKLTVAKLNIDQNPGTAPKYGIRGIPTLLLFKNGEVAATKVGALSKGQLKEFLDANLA

Take Akt (endogenous, COS 7 cells): the “in vitro phosphorylation with [γ-32P] ATP, SDS-PAGE” value in data set [1] was “Akt and Erk did not phosphorylate the controls of Trx alone, and the p50 subunit of NFκB”; in data set [3], “Akt and Erk did not phosphorylate the controls of Trx alone, and the p50 subunit of NFκB”; in data set [4] it was “Akt and Erk Trx-IRDBP-1 were capable of phosphorylating Trx-IRDBP-1”. For the same substance, the “in vitro phosphorylation with [γ-32P] ATP” value in data set [2] is “Akt phosphorylated the RPRAATF substrate of glycogen synthase kinase 3β, used as a positive control”.

Take “Erk2 (pUSEamp expression vector, cotransfected)”: the “IRDBP-1-induced IRE transcription” value in data set [5] is reported as “Erk2 decreased IRDBP-1-induced IRE transcription by 45±4% (lane 5 vs. lane 3)”.

As to Erk (Erk1/2; endogenous, COS 7 cells), the “in vitro phosphorylation with [γ-32P] ATP, SDS-PAGE” value in data set [1] is “Akt and Erk did not phosphorylate the controls of Trx alone, and the p50 subunit of NFκB”; in data set [3], “Akt and Erk did not phosphorylate the controls of Trx alone, and the p50 subunit of NFκB”; in data set [4], “Akt and Erk Trx-IRDBP-1 were capable of phosphorylating Trx-IRDBP-1”.

For the substance “wild-type Akt1 (pUSEamp expression vector, cotransfected)”, the “IRDBP-1-induced IRE activity (IRE-mediated transcription)” value in data set [5] is “Wild-type Akt1 expression, like Akt myr, stimulated IRDBP-1-induced IRE activity to the same extent as the addition of insulin (lane 7 vs. lane 4)”.
